Changes are numbered by the printed parent chain.
B1: TPP-9251 (antibody, human IgG1, lambda, V domains shown)
VH: EVQLLESGGGLVQPGGSLRLSCAASGFTFSNYGIHWVRQAPGKGLEWVSAIGTGGDTYYADSVTGRFTISRDNSKNTLYLQMNSLRAEDTAVYYCARDRGYYDILTGLYDYWGQGTLVTVSS
VL: QSVLTQPPSASGTPGQRVTISCSGSSSNIGNNYVNWYQQLPGTAPKLLIYGNYHRPSGVPDRFSGSKSGTSASLAITGLQAEDEADYYCSSYAGSNNWVFGGGTKLTVLG
B2: TPP-9238 (antibody, human IgG1, lambda, V domains shown)
VH: B1 VH with T64M
VL: B1 VL
B3: TPP-9258 (antibody, human IgG1, lambda, V domains shown)
VH: B1 VH with N31S, I34M, T64Q
VL: B1 VL

molecular target: anti-FXIa antibody 076D-M007-H04-CDRL3-N110D; test: cell-based or functional assay

aPTT 1.5 X	biochemical FXIa assay IC 50	plasma based assay IC 50	Binder
0.06 µM	0.2 nM	6 nM	B1
0.1 µM	0.5 nM	10 nM	B2
0.1 µM	0.5 nM	7 nM	B3

— patent US20210395390A1 (Bayer, published 2021)
